According to publication PMC11886768 (2025):

B1: GFP-CRY1 (N. benthamiana) [Arabidopsis] / cLUC-COP1 [Arabidopsis] (parent)
chain 1: MSGSVSGCGSGGCSIVWFRRDLRVEDNPALAAAVRAGPVIALFVWAPEEEGHYHPGRVSRWWLKNSLAQLDSSLRSLGTCLITKRSTDSVASLLDVVKSTGASQIFFNHLYDPLSLVRDHRAKDVLTAQGIAVRSFNADLLYEPWEVTDELGRPFSMFAAFWERCLSMPYDPESPLLPPKKIISGDVSKCVADPLVFEDDSEKGSNALLARAWSPGWSNGDKALTTFINGPLLEYSKNRRKADSATTSFLSPHLHFGEVSVRKVFHLVRIKQVAWANEGNEAGEESVNLFLKSIGLREYSRYISFNHPYSHERPLLGHLKFFPWAVDENYFKAWRQGRTGYPLVDAGMRELWATGWLHDRIRVVVSSFFVKVLQLPWRWGMKYFWDTLLDADLESDALGWQYITGTLPDSREFDRIDNPQFEGYKFDPNGEYVRRWLPELSRLPTDWIHHPWNAPESVLQAAGIELGSNYPLPIVGLDEAKARLHEALSQMWQLEAASRAAIENGSEEGLGDSAEVEEAPIEFPRDITMEETEPTRLNPNRRYEDQMVPSITSSLIRPEEDEESSLNLRNSVGDSRAEVPRNMVNTNQAQQRRAEPASNQVTAMIPEFNIRIVAESTEDSTAESSSSGRRERSGGIVPEWSPGYSEQFPSEENGIGGGSTTSSYLQNHHEILNWRRLSQTG
chain 2: MEEISTDPVVPAVKPDPRTSSVGEGANRHENDDGGSGGSEIGAPDLDKDLLCPICMQIIKDAFLTACGHSFCYMCIITHLRNKSDCPCCSQHLTNNQLYPNFLLDKLLKKTSARHVSKTASPLDQFREALQRGCDVSIKEVDNLLTLLAERKRKMEQEEAERNMQILLDFLHCLRKQKVDELNEVQTDLQYIKEDINAVERHRIDLYRARDRYSVKLRMLGDDPSTRNAWPHEKNQIGFNSNSLSIRGGNFVGNYQNKKVEGKAQGSSHGLPKKDALSGSDSQSLNQSTVSMARKKRIHAQFNDLQECYLQKRRQLADQPNSKQENDKSVVRREGYSNGLADFQSVLTTFTRYSRLRVIAEIRHGDIFHSANIVSSIEFDRDDELFATAGVSRCIKVFDFSSVVNEPADMQCPIVEMSTRSKLSCLSWNKHEKNHIASSDYEGIVTVWDVTTRQSLMEYEEHEKRAWSVDFSRTEPSMLVSGSDDCKVKVWCTRQEASVINIDMKANICCVKYNPGSSNYIAVGSADHHIHYYDLRNISQPLHVFSGHKKAVSYVKFLSNNELASASTDSTLRLWDVKDNLPVRTFRGHTNEKNFVGLTVNSEYLACGSETNEVYVYHKEITRPVTSHRFGSPDMDDAEEEAGSYFISAVCWKSDSPTMLTANSQGTIKVLVLAA

Variants of: B1
Test: luciferase complementation imaging (LCI) competition assay (cLUC-COP1 + HY5-nLUC)
Conditions: with cLUC-COP1 [Arabidopsis]; transfected N. benthamiana leaves, n = 22, CCD camera; value is the mean ('+'), median about 0.95; GFP-NLS-GUS control = 1; higher signal = less displacement …; parent: 0.6; read off a plot

| Variant | screen value |
| --- | --- |
| chain 1 V548A P549A | 1.1 |

Variants of: B1
Test: mammalian three-hybrid (M3H) competition assay (displacement of HY5-VP16 from E-COP1)
Conditions: with E-COP1 [Arabidopsis]; CHO-K1 cells, blue light (10 μmol m−2 s−1), 24 h; higher signal = less displacement of HY5 by the CRY1 variant; GFP control est. 150; parent: 30; read off a plot

| Variant | screen value (Au (SEAP/sNLuc)) |
| --- | --- |
| chain 1 V548A P549A | 150 |

Same assay, conditions: with E-COP1 [Arabidopsis]; CHO-K1 cells, darkness, 24 h; higher signal = less displacement of HY5 by the CRY1 variant; GFP control est. 150; parent: 76; read off a plot

| Variant | screen value (Au (SEAP/sNLuc)) |
| --- | --- |
| chain 1 V548A P549A | 130 |
